The record followed here is paper PMC9463536 (The Journal of Biological Chemistry, 2022).

For assay [1], the target named is T1, human claudin-4, untagged (human, UniProt O14493).
T1 construct: also called hCLDN-4
Nature of the assay: SEC. The following applies: both partners purified.

The target of assay [2] is T2, cCpE-His10 (wild type) (Clostridium perfringens, UniProt P01558).
T2 construct: not shown: His10, C-terminal, kept
Nature of the assay: BLI. The following applies: both partners purified.

T1 sequence (O14493 whole entry): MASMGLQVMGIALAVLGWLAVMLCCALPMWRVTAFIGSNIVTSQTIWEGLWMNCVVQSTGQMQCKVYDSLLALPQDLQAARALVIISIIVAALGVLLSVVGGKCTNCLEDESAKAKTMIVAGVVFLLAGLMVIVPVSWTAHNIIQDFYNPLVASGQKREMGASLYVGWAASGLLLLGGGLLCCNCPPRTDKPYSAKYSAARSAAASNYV

B1: COP-2 (CpE Obstructing Protein 2), synthetic antigen-binding fragment (Fab, V domains shown)
VH: EVQLVESGGGLVQPGGSLRLSCAASGFNFSSSSIHWVRQAPGKGLEWVASISSYSGYTSYADSVKGRFTISADTSKNTAYLQMNSLRAEDTAVYYCARYWSWYNSSHYIYSALDYWGQGTLVTVSS
VL: DIQMTQSPSSLSASVGDRVTITCRASQSVSSAVAWYQQKPGKAPKLLIYSASSLYSGVPSRFSGSRSGTDFTLTISSLQPEDFATYYCQQSYEWAPVTFGQGTKVEIK
notes: also called sFab; source: E. coli BL21-Gold, purified (MabSelect SuRe, Resource S)
Turning to B1, the binding result in assay [1] was “no binding”. For the same molecule, in assay [2], the affinity, expressed as Kd, was 67.6 ± 11.7 nM; the dissociation rate constant (koff) – broadly, the first-order rate constant of dissociation – was 0.00048 s⁻¹; the on-rate (kon) (as a rule, the rate constant with which the complex forms) stood at 7200 M⁻¹ s⁻¹.

B2: COP-3 (CpE Obstructing Protein 3), synthetic antigen-binding fragment (Fab, V domains shown)
VH: EVQLVESGGGLVQPGGSLRLSCAASGFNFYSSSIHWVRQAPGKGLEWVAYISSYSGYTYYADSVKGRFTISADTSKNTAYLQMNSLRAEDTAVYYCARGYGYFDYNFSVGYALDYWGQGTLVTVSS
VL: DIQMTQSPSSLSASVGDRVTITCRASQSVSSAVAWYQQKPGKAPKLLIYSASSLYSGVPSRFSGSRSGTDFTLTISSLQPEDFATYYCQQSHPWYYPITFGQGTKVEIK
notes: as for B1
As for B2, the binding result in assay [1] is reported as “no binding”. For the same molecule, in assay [2], binding was put at a Kd of 138 ± 6.2 nM, the koff stood at 0.001 s⁻¹ and the kon is 10000 M⁻¹ s⁻¹.
